# According to paper PMC3463355:
# Key:
# [1] = molecular target: PARP-1 (full-length) V762A (human) (UniProt P09874); experiment: HI-FI FRET
# [2] = molecular target: N-parp (Zn1-Zn3 and BRCT) (UniProt P09874); experiment: HI-FI FRET
# [3] = molecular target: Nuc165, unlabeled mononucleosome on 165-bp 601 DNA; experiment: SEC-MALS
# [4] = molecular target: Nuc207, mononucleosome on 207-bp 601 DNA as used for SEC-MALS; experiment: SEC-MALS
# [5] = molecular target: N-parp (N-terminal half of PARP-1, amino acids 1-486) (human) (UniProt P09874); experiment: FRET or BRET
# Chain of N-parp (N-terminal half of PARP-1, amino acids 1-486) (human) (P09874 1-486): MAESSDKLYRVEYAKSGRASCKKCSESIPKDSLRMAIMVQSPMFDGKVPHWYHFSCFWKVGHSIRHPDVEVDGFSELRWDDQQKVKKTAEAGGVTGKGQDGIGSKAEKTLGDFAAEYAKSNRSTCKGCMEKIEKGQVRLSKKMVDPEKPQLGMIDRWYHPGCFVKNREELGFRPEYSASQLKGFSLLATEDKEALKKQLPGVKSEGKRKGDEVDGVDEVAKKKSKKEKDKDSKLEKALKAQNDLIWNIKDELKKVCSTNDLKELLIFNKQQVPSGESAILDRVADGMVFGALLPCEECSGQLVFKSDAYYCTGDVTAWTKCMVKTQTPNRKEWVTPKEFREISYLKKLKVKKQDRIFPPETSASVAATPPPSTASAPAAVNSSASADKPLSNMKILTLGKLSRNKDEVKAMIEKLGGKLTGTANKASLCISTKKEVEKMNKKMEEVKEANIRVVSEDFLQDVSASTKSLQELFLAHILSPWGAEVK
# [6] = molecular target: full-length human PARP-1 [change] (human) (UniProt P09874); experiment: FRET or BRET
# Chain of full-length human PARP-1 [change] (human) (P09874 whole entry V762A): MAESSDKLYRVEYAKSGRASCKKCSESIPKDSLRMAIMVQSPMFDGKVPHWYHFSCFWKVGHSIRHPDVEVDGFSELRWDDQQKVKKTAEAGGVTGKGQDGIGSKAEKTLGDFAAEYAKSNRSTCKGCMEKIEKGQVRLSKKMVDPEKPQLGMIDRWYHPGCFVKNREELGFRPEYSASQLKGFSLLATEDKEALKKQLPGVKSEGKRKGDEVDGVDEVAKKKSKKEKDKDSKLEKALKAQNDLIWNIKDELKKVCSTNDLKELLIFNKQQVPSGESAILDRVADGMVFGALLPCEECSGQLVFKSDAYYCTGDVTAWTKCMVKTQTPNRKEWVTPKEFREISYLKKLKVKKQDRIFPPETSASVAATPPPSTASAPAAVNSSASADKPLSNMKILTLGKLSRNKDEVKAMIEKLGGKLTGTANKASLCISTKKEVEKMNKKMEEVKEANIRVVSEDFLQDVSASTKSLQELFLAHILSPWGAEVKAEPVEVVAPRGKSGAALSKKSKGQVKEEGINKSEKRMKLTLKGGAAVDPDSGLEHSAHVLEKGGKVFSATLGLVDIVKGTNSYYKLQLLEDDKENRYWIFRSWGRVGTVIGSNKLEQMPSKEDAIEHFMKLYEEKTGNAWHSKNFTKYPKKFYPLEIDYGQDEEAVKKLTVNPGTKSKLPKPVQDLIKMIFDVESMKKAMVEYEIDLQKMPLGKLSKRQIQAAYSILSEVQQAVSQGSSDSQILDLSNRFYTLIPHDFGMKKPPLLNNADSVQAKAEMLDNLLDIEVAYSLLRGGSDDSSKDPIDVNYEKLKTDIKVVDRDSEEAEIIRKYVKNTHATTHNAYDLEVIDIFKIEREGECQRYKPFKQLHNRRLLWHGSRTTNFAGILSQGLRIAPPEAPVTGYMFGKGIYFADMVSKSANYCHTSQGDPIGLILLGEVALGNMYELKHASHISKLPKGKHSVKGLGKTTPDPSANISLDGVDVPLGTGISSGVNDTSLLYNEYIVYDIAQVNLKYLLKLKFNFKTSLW
# [7] = molecular target: nucleosome (of the N-parp/nucleosome complexes, data not shown); experiment: SEC-MALS
# Chain of PARP-1 (full-length) V762A (human) (P09874 whole entry V762A): as above
# Chain of N-parp (Zn1-Zn3 and BRCT) (P09874 1-486): as the sequence (P09874 1-486) above
# Chain of N-parp (N-terminal half of PARP-1, amino acids 1-486) (P09874 1-486): as above
Kd [5] [nM],Substance,Kd [1] [nM],Kd [2] [nM],other results
,Nuc207,1,48.8,
,Nuc165,2.2,57.8,
,Nuc178,84.6,238,
,full-length human PARP-1 [change] (from UniProt P09874) (enzyme),,,stoichiometry N [3]: 1; stoichiometry N [4]: 1
48.8,"Nuc207, mononucleosome on 207-bp 601 DNA, labeled with ATTO 647N at histone H4 [change] (complex)",,,
57.8,"Nuc165, mononucleosome on 165-bp 601 DNA, labeled with ATTO 647N at histone H4 [change] (complex)",,,Kd [6]: 2.2 nM
,"N-parp (N-terminal half of PARP-1, amino acids 1-486) (from UniProt P09874 1-486) (domain or fragment)",,,stoichiometry N [7]: 1
> 500,"Nuc147, mononucleosome on 147-bp 601 DNA, labeled with ATTO 647N at histone H4 [change] (complex)",,,Kd [6]: > 500 nM
